Data from US20140186359A1 (TORAY INDUSTRIES, published 2014).
Changes are numbered by the printed parent chain.

T1: human CAPRIN-1 expressed on the surface of human cancer cells (human, UniProt Q14444 2-709)
T1 sequence: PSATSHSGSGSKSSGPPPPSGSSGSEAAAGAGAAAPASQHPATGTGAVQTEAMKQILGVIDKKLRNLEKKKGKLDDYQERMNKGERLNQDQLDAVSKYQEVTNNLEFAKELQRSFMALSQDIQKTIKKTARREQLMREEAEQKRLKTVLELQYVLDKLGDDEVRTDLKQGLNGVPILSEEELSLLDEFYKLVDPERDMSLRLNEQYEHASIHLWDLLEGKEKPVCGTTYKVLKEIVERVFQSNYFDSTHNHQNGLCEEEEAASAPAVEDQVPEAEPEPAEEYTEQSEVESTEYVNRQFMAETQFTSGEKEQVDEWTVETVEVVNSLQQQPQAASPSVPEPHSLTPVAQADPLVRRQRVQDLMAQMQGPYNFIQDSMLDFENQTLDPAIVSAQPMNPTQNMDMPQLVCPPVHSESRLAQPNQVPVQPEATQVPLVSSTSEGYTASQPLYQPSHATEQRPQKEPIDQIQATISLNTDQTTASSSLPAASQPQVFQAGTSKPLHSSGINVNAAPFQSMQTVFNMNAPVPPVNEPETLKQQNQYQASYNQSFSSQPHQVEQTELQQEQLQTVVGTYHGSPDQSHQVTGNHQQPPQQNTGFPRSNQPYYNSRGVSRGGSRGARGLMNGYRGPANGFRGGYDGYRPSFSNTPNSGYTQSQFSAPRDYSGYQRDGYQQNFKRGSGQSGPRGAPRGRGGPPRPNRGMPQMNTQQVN

B1: human-chicken chimeric monoclonal antibody #1 (antibody, V domains shown)
VH: AVTLDESGGGLQTPGGALSLVCKASGFTFRSHSMFWVRQAPGKGLEYVAGIYGVGRSIRYGSAVKGRATMSRDNGQSTVRLQLNNLRAEDTATYYCAKSGYFSNSRYWDSGAYFIDAWGHGTEVIVS
VL: ALTQPASVSANPGETVEITCSGGYSNYGWYQQKSPGSAPVTVIYYNDKRPSDIPSRFSGSKSGSTATLTITGVQAEDEAVYFCGGYDSSTDAGIFGAGTTLTV
B2: human-chicken chimeric monoclonal antibody #2 (antibody, V domains shown)
VH: B1 VH with A92G, S105R
VL: B1 VL with P12L, E14G, A66G, Q74R, F82Y
B3: human-chicken chimeric monoclonal antibody #4 (antibody, V domains shown)
VH: AVTLDESGGGLQTPGGAVSLVCKGSGFTFSSYGMGWVRQAPGKGLEYVAAIRKDGSTNYGPAVKGRATISRDNGQSTVRLQLSNLRAEDTATYYCAKRSHTGVNAAKIDAWGRGTEVIVS
VL: ALTQPASVSANPGETVKITCSGASHNYGWFQQKSPGSAPVTVIYSNDKRPSDIPSRFSGSKSGSTATLTITGVQADDEAVYFCGGYNIYGPTFGAGTTLTV
B4: human-mouse chimeric comparative monoclonal antibody 3 (antibody, human IgG1, kappa)
heavy: not shown
light: RTTSHMDSDIQLTQSPASLSASVGETVTITCRASGNIHNYLAWYQQKQGKSPQLLVYNAKTLADGVPSRFSGSGSGTQYSLKINSLQPEDFGSYYCQHFWSTLTFGGGTKLEIKQSDTVAAPSVFIFPPSDEQLKSGTASVVCLLNNFYPREAKVQWKVDNALQSGNSQESVTEQDSKDSTYSLSSTLTLSKADYEKHKVYACEVTHQGLSSPVTKSFNRGEC
B5: human-chicken chimeric monoclonal antibody #3 (antibody, V domains shown)
VH: AVTLDESGGGLQTPGGGLSLVCKGSGFTFSSFGMFWVRQAPGKGLEFVASISDNGRSTYYGSAVKGRATISRDDGQSTVRLQLNNLRAEDTGTYYCAKNAYVGRGCCFSYSIDAWGHGTEVIVS
VL: ALTQPASVSVNPGETVKITCSGGGSSSDAYGWYQQKSPGSAPVTLIYNGSNRPSHIPSRFSGSTSGSTNTLTITGVQVEDEAIYFCGSTDTSTSVGIFGAGTTLTV
B6: human-mouse chimeric monoclonal antibody #1 (antibody, V domains shown)
VH: GPGLVQPSQSLSITCTVSGFSLTTYDLHWVRQSPGKGLEWLGVIWSGGSTDYNAAFISRLSISKDNSKSQVFFKMNSLQANDTAIYYCARNYGYSAWFAYWGQGTLVTVSA
VL: DVLMTQTPLSLPVSLGDQASISCRSSQSIVHSNGNTYLEWYLQKPGQSPKLLIYKVSNRFSGVPDRFSGSGSGTDFTLKISRVEAEDLGVYYCFQGSHVPLTFGAGTKLELKR
B7: human-mouse chimeric monoclonal antibody #2 (antibody, human IgG1, kappa, V domains shown)
VH: GGGLVKPGGSLKLSCAASGFTFSSYGMSWVRQTPEKRLEWVATISSGGSYTYYPDSVKGRFTISRDNAKNTLYLQMSSLRSEDTAMYYCASLASYYFDYWGQGTTLTVSS
VL: GARCDVQMIQSPSSLSASLGDIVTMTCQASQGTSINLNWFQQKPGKAPKLLIYGASSLEDGVPSRFSGSCFGTDFTLTISSLEDEDMATYFCLQHSYLPPLTFGAGTKLELKR
B8: human-mouse chimeric monoclonal antibody #3 (antibody, human IgG1, kappa, V domains shown)
VH: B7 VH
VL: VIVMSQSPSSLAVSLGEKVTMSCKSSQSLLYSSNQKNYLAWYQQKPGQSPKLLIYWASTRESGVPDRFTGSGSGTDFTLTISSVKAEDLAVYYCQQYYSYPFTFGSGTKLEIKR
B9: human-mouse chimeric comparative monoclonal antibody 5 (antibody, human IgG1, kappa)
heavy: not shown
light: GLFCSVERCHYQLQSSQNLLSIVNRYHYMSGNPPKLLVYPALLIYEASITKSCVPDRFTRSGSGTNFTLTINFVHADDLIFYYCQHNRGSFLPSSSVQVPRRRSNTVAAPSVFIFPPSDEQLKSGTASVVCLLNNFYPREAKVQWKVDNALQSGNSQESVTEQDSKDSTYSLSSTLTLSKADYEKHKVYACEVTHQGLSSPVTKSFNRGEC
B10: human-mouse chimeric comparative monoclonal antibody 2 (antibody, human IgG1, kappa)
heavy: not shown
light: AVLRCSRGLLVIWISDIQLTQSPSSLAVTAGEKVTMSCKSSQSLLWSVNQKNYLSWYQQKQRQPPKLLIYGASIRESWVPDRFTGSGSGTDFTLTISNVHAEDLAVYYCQHNHGSFLPSRSEQVPSWRSNNRTVAAPSVFIFPPSDEQLKSGTASVVCLLNNFYPREAKVQWKVDNALQSGNSQESVTEQDSKDSTYSLSSTLTLSKADYEKHKVYACEVTHQGLSSPVTKSFNRGEC
B11: human-mouse chimeric comparative monoclonal antibody 1 (antibody, human IgG1, kappa)
heavy: not shown
light: DIQMTQSPASLSASVGETVTITCRASGNIHNYLAWYQQKQGKSPQLLVYNAKTLADGVPSRFSGSGSGTQYSLKINSLQPEDFGSYYCQHFWSTLTFGAGTKLELKRADAAPTVSNPYDTVAAPSVFIFPPSDEQLKSGTASVVCLLNNFYPREAKVQWKVDNALQSGNSQESVTEQDSKDSTYSLSSTLTLSKADYEKHKVYACEVTHQGLSSPVTKSFNRGEC
B12: human-mouse chimeric comparative monoclonal antibody 4 (antibody, human IgG1, kappa, V domains shown)
VH: EVQLHQFGAELVKPGASVKISCKASGYTFTDYNMDWVKQSHGKSLEWIGDINPNYDSTSYNQKFKGKATLTVDKSSSTAYMELRSLTSEDTAVYYCARSRSYDYEGFAYWGQGTLVTVSA
VL: SGDRVSLSCRASQSISNYLHWYQQKSHESPRLLIKYASQSISGIPSRFSGSGSGTDFTLSINSVETEDFGMYFCQQSNSWPYTFGAGTKLEIKQ

Target: T1, human CAPRIN-1 expressed on the surface …
Assay: cell-based or functional assay
Throughout, for ADCC cytotoxic activity (51Cr release) against A549: test concentration or dose not given here.
Throughout, for ADCC cytotoxic activity (51Cr release) against Caki-1: test concentration or dose not given here.
Throughout, for ADCC cytotoxic activity (51Cr release) against Caki-2: test concentration or dose not given here.
Throughout, for ADCC cytotoxic activity (51Cr release) against DLD-1: test concentration or dose not given here.
Throughout, for ADCC cytotoxic activity (51Cr release) against HCT-116: test concentration or dose not given here.
Throughout, for ADCC cytotoxic activity (51Cr release) against MCF7: test concentration or dose not given here.
Throughout, for ADCC cytotoxic activity (51Cr release) against MDA-MB-436: test concentration or dose not given here.
Throughout, for ADCC cytotoxic activity (51Cr release) against MIAPaCa-2: test concentration or dose not given here.
Throughout, for ADCC cytotoxic activity (51Cr release) against Panc-1: test concentration or dose not given here.
Throughout, for ADCC cytotoxic activity (51Cr release) against QG56: test concentration or dose not given here.

Row | Binder | ADCC cytotoxic activity (51Cr release) against A549 [%] | ADCC cytotoxic activity (51Cr release) against Caki-1 [%] | ADCC cytotoxic activity (51Cr release) against Caki-2 [%] | ADCC cytotoxic activity (51Cr release) against DLD-1 [%] | ADCC cytotoxic activity (51Cr release) against HCT-116 [%] | ADCC cytotoxic activity (51Cr release) against MCF7 [%] | ADCC cytotoxic activity (51Cr release) against MDA-MB-436 [%] | ADCC cytotoxic activity (51Cr release) against MIAPaCa-2 [%] | ADCC cytotoxic activity (51Cr release) against Panc-1 [%] | ADCC cytotoxic activity (51Cr release) against QG56 [%] | ADCC cytotoxic activity (51Cr release) against all other cancer cell lines listed [%]
1 | B1 | ≥ 12 | ≥ 14 | ≥ 34 | ≥ 15 | ≥ 19 | ≥ 30 | ≥ 18 | ≥ 28 | ≥ 18 | ≥ 10 | ≥ 10
2 | B2 | ≥ 12 | ≥ 14 | ≥ 34 | ≥ 15 | ≥ 19 | ≥ 30 | ≥ 18 | ≥ 28 | ≥ 18 | ≥ 10 | ≥ 10
3 | B3 | ≥ 12 | ≥ 14 | ≥ 34 | ≥ 15 | ≥ 19 | ≥ 30 | ≥ 18 | ≥ 28 | ≥ 18 | ≥ 10 | ≥ 10
4 | B4 | – | – | < 8 | – | < 3 | < 5 | – | 7 | – | < 5 | < 4
5 | B5 | ≥ 12 | ≥ 14 | ≥ 34 | ≥ 15 | ≥ 19 | ≥ 30 | ≥ 18 | ≥ 28 | ≥ 18 | ≥ 10 | ≥ 10
6 | B6 | – | – | ≥ 34 | – | ≥ 19 | ≥ 30 | – | ≥ 28 | – | ≥ 10 | ≥ 10
7 | B7 | – | – | ≥ 18 | – | ≥ 18 | ≥ 32 | – | ≥ 32 | – | ≥ 10 | ≥ 10
8 | B8 | – | – | ≥ 18 | – | ≥ 18 | ≥ 32 | – | ≥ 32 | – | ≥ 10 | ≥ 10
9 | B9 | – | – | < 8 | – | < 3 | < 5 | – | 7 | – | < 5 | < 4
10 | B10 | – | – | < 8 | – | < 3 | < 5 | – | 7 | – | < 5 | < 4
11 | B11 | – | – | < 8 | – | < 3 | < 5 | – | 7 | – | < 5 | < 4
12 | B12 | – | – | < 8 | – | < 3 | < 5 | – | 7 | – | < 5 | < 4
